From patent publication US20210284750A1, “Immunoconjugate Synthesis Method” (priority 2017, published 2021) come the findings set out here.

Experiment [1] relates to Human antigen presenting cells (APCs). Kind of experiment: APC-tumor co-culture: myeloid activation by flow cytometry. As to conditions: 18 hours; for myeloid activation: APC-tumor co-culture. It is filed as cell-based. From the text: (§1) Isolation of Human Antigen Presenting Cells. Human antigen presenting cells (APCs) were negatively selected from human peripheral blood mononuclear cells obtained from healthy blood donors (Stanford Blood Center) by density gradient centrifugation using a RosetteSep Human Monocyte Enrichment Cocktail (Stem Cell Technologies) containing monoclonal antibodies against CD14, CD16, CD40, CD86, CD123, and HLA-DR. Immature APCs were subsequently purified to >97% purity via negative selection using an EasySep Human Monocyte Enrichment Kit without CD16 depletion containing monoclonal antibodies against CD14, CD16, CD40, CD86, CD123, and HLA-DR.
(§2) Preparation of Tumor Cells. Tumor cells were resuspended in PBS with 0.1% fetal bovine serum (FBS) at 1 to 10×10^6 cells/mL. Cells were subsequently incubated with 2 μM CFSE to yield a final concentration of 1 μM. The reaction was ended after 2 minutes via the addition of 10 mL complete medium with 10% FBS and washed once with complete medium. Cells were either fixed in 2% paraformaldehyde and washed three times with PBS or left unfixed prior to freezing the cells in 10% DMSO, 20% FBS and 70% medium.
(§3) APC-Tumor Co-cultures. […] Cells and cell-free supernatants were analyzed after 18 hours via flow cytometry or ELISA.

Experiment [2] shares this test system. The experiment in a line: APC-tumor co-culture: cytokine secretion in cell-free supernatants (ELISA). It is filed as cell-based. As to conditions: 18 hours.
Text: as §1, §2, §3
On the technique in general: An ELISA detects its analyte on a solid surface through an enzyme-linked reagent.

[3] abbreviates: APCs with CFSE-labeled tumor cells, various concentrations, flow cytometry.

B1: CD20 (protein, UniProt P11836 1-297, looked up)
B-lymphocyte antigen CD20: MTTPRNSVNGTFPAEPMKGPIAMQSGPKPLFRRMSSLVGPTQSFFMRESKTLGAVQIMNGLFHIALGGLLMIPAGIYAPICVTVWYPLWGGIMYIISGSLLAATEKNSRKCLVKGKMIMNSLSLFAAISGMILSIMDILNIKISHFLKMESLNFIRAHTPYINIYNCEPANPSEKNSPSTQYCYSIQSLFLGILSVMLIFAFFQELVIAGIVENEWKRTCSRPKSNIVLLSAEEKKEQTIEIKEEVVGLTETSSQPKNEEDIEIIPIQEEEEEETETNFPEPPQDQESSPIENDSSP
Take B1: in experiment [1], the “myeloid activation” value is “does not”. The “myeloid activation” value in experiment [1] (listed as unconjugated CD20 antibody) is “do not”. For the same molecule, in experiment [1] (setting [3]), the “myeloid activation as indicated by CD14 downregulation” value was “does not”, the “myeloid activation as indicated by CD16 downregulation” value is on record as “does not”, the “myeloid activation as indicated by CD40 upregulation” value is “does not” and the “myeloid activation as indicated by CD86 upregulation” value was “does not”. In experiment [1] (setting [3]), the “myeloid activation as indicated by CD123 upregulation” value is listed as “does not” and the “myeloid activation as indicated by HLA-DR upregulation” value is recorded as “does not”. Also, the “cytokine secretion” value in experiment [2] was “do not”.
